Experimental data as given in paper PMC5121590, “Antibody-antigen kinetics constrain intracellular humoral immunity” (Scientific Reports, 2016).

Key:
[1] = target: T1, recombinant AdV5 hexon protein (Human adenovirus C serotype 5 (HAdV-5), UniProt P04133); assay: cell-based or functional assay
[2] = target: T1, recombinant AdV5 hexon protein; assay: SPR; settings: both partners purified
[3] = target: T1, recombinant AdV5 hexon protein; assay: SPR; settings: both partners purified; remark: listed apart in the source
[4] = target: the molecule itself; assay: crystal structure; 9C12 Fab and hexon mixed 1:1 to a 5 mg/ml complex; crystals in 15% MPD, 5% PEG 4K, 0.1 M imidazole pH 8; 2.7 Å

Binder | Kd [2] [nM] | koff [2] [s⁻¹] | kon [2] [M⁻¹ s⁻¹] | further results
recombinant humanized IgG1 version of 9C12 (h9C12), wild type (antibody, V domains shown) VH: VQLKQSGPGLLQPSQRLSITCTVSGFSLGRYGVHWIRQSPGKGLEWLGVIWRGGTTDYNAVFMSRLSINKDDSKSQVFFTMNSLRPDDTAIYYCARQGSNFPLAYWGQGTLVTVSA VL: NIVMTQTPKFLLVSIGDSITITCKASQSVTNDAAWYQKKPGQSPQLLIYQASTRYTGVPDRFSGSGYGTDFTFTISAVQAEDLAVYFCHQDYSSPLTFGAGTKLELK | – | – | – | neutralization of Adv5 infection in HEK293T cells [1]: ~25 fold
h9C12 Fab G29R/R30S (Fab, V domains shown, source: HEK293E, transiently co-transfected, purified (CaptureSelect CH1, SEC Superdex 75)) VH: VQLKQSGPGLLQPSQRLSITCTVSGFSLRSYGVHWIRQSPGKGLEWLGVIWRGGTTDYNAVFMSRLSINKDDSKSQVFFTMNSLRPDDTAIYYCARQGSNFPLAYWGQGTLVTVSA VL: NIVMTQTPKFLLVSIGDSITITCKASQSVTNDAAWYQKKPGQSPQLLIYQASTRYTGVPDRFSGSGYGTDFTFTISAVQAEDLAVYFCHQDYSSPLTFGAGTKLELK | 92.8 | 0.0049 | 53000 | –
h9C12 Fab (wild type) (Fab, V domains shown, also called WT h9C12; humanized 9C12; source: HEK293E, transiently co-transfected, purified (CaptureSelect CH1, SEC Superdex 75)) VH: VQLKQSGPGLLQPSQRLSITCTVSGFSLGRYGVHWIRQSPGKGLEWLGVIWRGGTTDYNAVFMSRLSINKDDSKSQVFFTMNSLRPDDTAIYYCARQGSNFPLAYWGQGTLVTVSA VL: NIVMTQTPKFLLVSIGDSITITCKASQSVTNDAAWYQKKPGQSPQLLIYQASTRYTGVPDRFSGSGYGTDFTFTISAVQAEDLAVYFCHQDYSSPLTFGAGTKLELK | 0.8 | 0.00052 | 635000 | –
h9C12 Fab N100A (Fab, V domains shown, source: HEK293E, transiently co-transfected, purified (CaptureSelect CH1, SEC Superdex 75)) VH: VQLKQSGPGLLQPSQRLSITCTVSGFSLGRYGVHWIRQSPGKGLEWLGVIWRGGTTDYNAVFMSRLSINKDDSKSQVFFTMNSLRPDDTAIYYCARQGSAFPLAYWGQGTLVTVSA VL: NIVMTQTPKFLLVSIGDSITITCKASQSVTNDAAWYQKKPGQSPQLLIYQASTRYTGVPDRFSGSGYGTDFTFTISAVQAEDLAVYFCHQDYSSPLTFGAGTKLELK | 0.9 | 0.00085 | 889000 | –
h9C12 Fab Q97R (Fab, V domains shown, source: HEK293E, transiently co-transfected, purified (CaptureSelect CH1, SEC Superdex 75)) VH: VQLKQSGPGLLQPSQRLSITCTVSGFSLGRYGVHWIRQSPGKGLEWLGVIWRGGTTDYNAVFMSRLSINKDDSKSQVFFTMNSLRPDDTAIYYCARRGSNFPLAYWGQGTLVTVSA VL: NIVMTQTPKFLLVSIGDSITITCKASQSVTNDAAWYQKKPGQSPQLLIYQASTRYTGVPDRFSGSGYGTDFTFTISAVQAEDLAVYFCHQDYSSPLTFGAGTKLELK | – | – | – | binding result [3]: no binding
h9C12 Fab W51E (Fab, V domains shown, source: HEK293E, transiently co-transfected, purified (CaptureSelect CH1, SEC Superdex 75)) VH: VQLKQSGPGLLQPSQRLSITCTVSGFSLGRYGVHWIRQSPGKGLEWLGVIERGGTTDYNAVFMSRLSINKDDSKSQVFFTMNSLRPDDTAIYYCARQGSNFPLAYWGQGTLVTVSA VL: NIVMTQTPKFLLVSIGDSITITCKASQSVTNDAAWYQKKPGQSPQLLIYQASTRYTGVPDRFSGSGYGTDFTFTISAVQAEDLAVYFCHQDYSSPLTFGAGTKLELK | 16900 | – | – | –
h9C12 Fab Q97A (Fab, V domains shown, source: HEK293E, transiently co-transfected, purified (CaptureSelect CH1, SEC Superdex 75)) VH: VQLKQSGPGLLQPSQRLSITCTVSGFSLGRYGVHWIRQSPGKGLEWLGVIWRGGTTDYNAVFMSRLSINKDDSKSQVFFTMNSLRPDDTAIYYCARAGSNFPLAYWGQGTLVTVSA VL: NIVMTQTPKFLLVSIGDSITITCKASQSVTNDAAWYQKKPGQSPQLLIYQASTRYTGVPDRFSGSGYGTDFTFTISAVQAEDLAVYFCHQDYSSPLTFGAGTKLELK | 462 | – | – | –
h9C12 Fab G32P (Fab, V domains shown, source: HEK293E, transiently co-transfected, purified (CaptureSelect CH1, SEC Superdex 75)) VH: VQLKQSGPGLLQPSQRLSITCTVSGFSLGRYPVHWIRQSPGKGLEWLGVIWRGGTTDYNAVFMSRLSINKDDSKSQVFFTMNSLRPDDTAIYYCARQGSNFPLAYWGQGTLVTVSA VL: NIVMTQTPKFLLVSIGDSITITCKASQSVTNDAAWYQKKPGQSPQLLIYQASTRYTGVPDRFSGSGYGTDFTFTISAVQAEDLAVYFCHQDYSSPLTFGAGTKLELK | – | – | – | binding result [3]: no binding
h9C12 Fab Q97A/S99A/F101A/L103A (Fab, V domains shown, also called combined alanine mutations in H3; source: HEK293E, transiently co-transfected, purified (CaptureSelect CH1, SEC Superdex 75)) VH: VQLKQSGPGLLQPSQRLSITCTVSGFSLGRYGVHWIRQSPGKGLEWLGVIWRGGTTDYNAVFMSRLSINKDDSKSQVFFTMNSLRPDDTAIYYCARAGANAPAAYWGQGTLVTVSA VL: NIVMTQTPKFLLVSIGDSITITCKASQSVTNDAAWYQKKPGQSPQLLIYQASTRYTGVPDRFSGSGYGTDFTFTISAVQAEDLAVYFCHQDYSSPLTFGAGTKLELK | – | – | – | binding result [3]: no binding
h9C12 Fab G53P (Fab, V domains shown, source: HEK293E, transiently co-transfected, purified (CaptureSelect CH1, SEC Superdex 75)) VH: VQLKQSGPGLLQPSQRLSITCTVSGFSLGRYGVHWIRQSPGKGLEWLGVIWRPGTTDYNAVFMSRLSINKDDSKSQVFFTMNSLRPDDTAIYYCARQGSNFPLAYWGQGTLVTVSA VL: NIVMTQTPKFLLVSIGDSITITCKASQSVTNDAAWYQKKPGQSPQLLIYQASTRYTGVPDRFSGSGYGTDFTFTISAVQAEDLAVYFCHQDYSSPLTFGAGTKLELK | 330 | 0.079 | 239000 | –
9C12 Fab (original mouse format, SPR) (Fab, V domains shown, also called mouse WT 9C12; source: gene fragment synthesized as cDNA; host stated only for the h9C12 variants (HEK293E)) VH: VQLKQSGPGLLQPSQRLSITCTVSGFSLGRYGVHWIRQSPGKGLEWLGVIWRGGTTDYNAVFMSRLSINKDDSKSQVFFTMNSLRPDDTAIYYCARQGSNFPLAYWGQGTLVTVSA VL: NIVMTQTPKFLLVSIGDSITITCKASQSVTNDAAWYQKKPGQSPQLLIYQASTRYTGVPDRFSGSGYGTDFTFTISAVQAEDLAVYFCHQDYSSPLTFGAGTKLELK | 1 | 0.00045 | 447000 | –
h9C12 Fab T55S (Fab, V domains shown, source: HEK293E, transiently co-transfected, purified (CaptureSelect CH1, SEC Superdex 75)) VH: VQLKQSGPGLLQPSQRLSITCTVSGFSLGRYGVHWIRQSPGKGLEWLGVIWRGGSTDYNAVFMSRLSINKDDSKSQVFFTMNSLRPDDTAIYYCARQGSNFPLAYWGQGTLVTVSA VL: NIVMTQTPKFLLVSIGDSITITCKASQSVTNDAAWYQKKPGQSPQLLIYQASTRYTGVPDRFSGSGYGTDFTFTISAVQAEDLAVYFCHQDYSSPLTFGAGTKLELK | 1.2 | 0.00095 | 795000 | –
h9C12 Fab G98C/S99H (Fab, V domains shown, source: HEK293E, transiently co-transfected, purified (CaptureSelect CH1, SEC Superdex 75)) VH: VQLKQSGPGLLQPSQRLSITCTVSGFSLGRYGVHWIRQSPGKGLEWLGVIWRGGTTDYNAVFMSRLSINKDDSKSQVFFTMNSLRPDDTAIYYCARQCHNFPLAYWGQGTLVTVSA VL: NIVMTQTPKFLLVSIGDSITITCKASQSVTNDAAWYQKKPGQSPQLLIYQASTRYTGVPDRFSGSGYGTDFTFTISAVQAEDLAVYFCHQDYSSPLTFGAGTKLELK | 288 | 0.0052 | 18000 | –
h9C12 Fab G98P (Fab, V domains shown, source: HEK293E, transiently co-transfected, purified (CaptureSelect CH1, SEC Superdex 75)) VH: VQLKQSGPGLLQPSQRLSITCTVSGFSLGRYGVHWIRQSPGKGLEWLGVIWRGGTTDYNAVFMSRLSINKDDSKSQVFFTMNSLRPDDTAIYYCARQPSNFPLAYWGQGTLVTVSA VL: NIVMTQTPKFLLVSIGDSITITCKASQSVTNDAAWYQKKPGQSPQLLIYQASTRYTGVPDRFSGSGYGTDFTFTISAVQAEDLAVYFCHQDYSSPLTFGAGTKLELK | – | – | – | binding result [3]: no binding
full-length Adv5 hexon protein (natural protein, also called human adenovirus 5 hexon; source: purified from Adv5-infected cells (CsCl-gradient, size exclusion)) MATPSMMPQWSYMHISGQDASEYLSPGLVQFARATETYFSLNNKFRNPTVAPTHDVTTDRSQRLTLRFIPVDREDTAYSYKARFTLAVGDNRVLDMASTYFDIRGVLDRGPTFKPYSGTAYNALAPKGAPNPCEWDEAATALEINLEEEDDDNEDEVDEQAEQQKTHVFGQAPYSGINITKEGIQIGVEGQTPKYADKTFQPEPQIGESQWYETEINHAAGRVLKKTTPMKPCYGSYAKPTNENGGQGILVKQQNGKLESQVEMQFFSTTEATAGNGDNLTPKVVLYSEDVDIETPDTHISYMPTIKEGNSRELMGQQSMPNRPNYIAFRDNFIGLMYYNSTGNMGVLAGQASQLNAVVDLQDRNTELSYQLLLDSIGDRTRYFSMWNQAVDSYDPDVRIIENHGTEDELPNYCFPLGGVINTETLTKVKPKTGQENGWEKDATEFSDKNEIRVGNNFAMEINLNANLWRNFLYSNIALYLPDKLKYSPSNVKISDNPNTYDYMNKRVVAPGLVDCYINLGARWSLDYMDNVNPFNHHRNAGLRYRSMLLGNGRYVPFHIQVPQKFFAIKNLLLLPGSYTYEWNFRKDVNMVLQSSLGNDLRVDGASIKFDSICLYATFFPMAHNTASTLEAMLRNDTNDQSFNDYLSAANMLYPIPANATNVPISIPSRNWAAFRGWAFTRLKTKETPSLGSGYDPYYTYSGSIPYLDGTFYLNHTFKKVAITFDSSVSWPGNDRLLTPNEFEIKRSVDGEGYNVAQCNMTKDWFLVQMLANYNIGYQGFYIPESYKDRMYSFFRNFQPMSRQVVDDTKYKDYQQVGILHQHNNSGFVGYLAPTMREGQAYPANFPYPLIGKTAVDSITQKKFLCDRTLWRIPFSSNFMSMGALTDLGQNLLYANSAHALDMTFEVDPMDEPTLLYVLFEVFDVVRVHRPHRGVIETVYLRTPFSAGNATT | – | – | – | binding result [4]: binds
